Results as given in the supplement of paper PMC7125110.
± gives the standard error. For some assays here: Fewer inactive variants are shown than the library holds.

B1: glmS ribozyme (parent)
chain: AUAAAAGCGCCAGAACUACAGAAAUGUAGUUGACGAGGAGGAGGUUUAUCGAAUUUUCGGCGGAUGCCUCCAAA

Assays:
Conditions in all cases: with glucosamine-6-phosphate
glucosamine-6-phosphate [1] = variants of: B1; assay: kcat; higher = faster cleavage; RNA array
Summary of the method: (§1)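 A hybridised Cy3 probe tracked barcoded ribozyme variants, transcribed in situ by E. coli RNA polymerase on sequenced MiSeq chips, at 37 °C. The variants received 40 μM to 10 mM glucosamine-6-phosphate in HEPES/KCl/Mg(OAc)2 buffer. kobs came from decay fits and kcat and KM from weighted Michaelis–Menten fits.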

glucosamine-6-phosphate [2] = variants of: B1; assay: KM; higher = weaker cofactor use; RNA array
Summary of the method: as §1

glucosamine-6-phosphate [3] = variants of: B1; assay: self-cleavage kobs at 640 uM GlcN6P; higher = faster cleavage; RNA array
Summary of the method: as §1

glucosamine-6-phosphate [4] = variants of: B1; assay: self-cleavage kobs at 2500 uM GlcN6P; higher = faster cleavage; RNA array
Summary of the method: as §1

glucosamine-6-phosphate [5] = variants of: B1; assay: self-cleavage kobs at 10000 uM GlcN6P; higher = faster cleavage; RNA array
Summary of the method: as §1

glucosamine-6-phosphate [6] = variants of: B1; assay: self-cleavage kobs at 40 uM GlcN6P; higher = faster cleavage; RNA array
Summary of the method: as §1

glucosamine-6-phosphate [7] = variants of: B1; assay: self-cleavage kobs at 160 uM GlcN6P; higher = faster cleavage; RNA array
Summary of the method: as §1

C16G C58A
kcat (glucosamine-6-phosphate [1]): 0.000242 ± 1.6e-05 s⁻¹ | KM (glucosamine-6-phosphate [2]): 3440 ± 410 µM | self-cleavage kobs at 640 uM GlcN6P (glucosamine-6-phosphate [3]): 3.73e-05 ± 9.2e-06 s⁻¹ | self-cleavage kobs at 2500 uM GlcN6P (glucosamine-6-phosphate [4]): 0.000104 ± 1.8e-05 s⁻¹ | self-cleavage kobs at 10000 uM GlcN6P (glucosamine-6-phosphate [5]): 0.000178 ± 3.1e-05 s⁻¹

C16U C68A
kcat (glucosamine-6-phosphate [1]): 3.77e-05 ± 5.5e-06 s⁻¹ | self-cleavage kobs at 640 uM GlcN6P (glucosamine-6-phosphate [3]): 4.99e-05 ± 1.5e-05 s⁻¹ | self-cleavage kobs at 2500 uM GlcN6P (glucosamine-6-phosphate [4]): 2.73e-05 ± 1.3e-05 s⁻¹ | self-cleavage kobs at 10000 uM GlcN6P (glucosamine-6-phosphate [5]): 3.74e-05 ± 7.6e-06 s⁻¹

C16U C68U
kcat (glucosamine-6-phosphate [1]): 0.0026 ± 0.0006 s⁻¹ | KM (glucosamine-6-phosphate [2]): 1440 ± 460 µM | self-cleavage kobs at 40 uM GlcN6P (glucosamine-6-phosphate [6]): 8.07e-05 ± 5.9e-06 s⁻¹ | self-cleavage kobs at 160 uM GlcN6P (glucosamine-6-phosphate [7]): 0.000263 ± 2.9e-05 s⁻¹ | self-cleavage kobs at 640 uM GlcN6P (glucosamine-6-phosphate [3]): 0.000649 ± 5.6e-05 s⁻¹ | self-cleavage kobs at 2500 uM GlcN6P (glucosamine-6-phosphate [4]): 0.00247 ± 0.00034 s⁻¹ | self-cleavage kobs at 10000 uM GlcN6P (glucosamine-6-phosphate [5]): 0.00235 ± 0.00021 s⁻¹

C16A C58G
kcat (glucosamine-6-phosphate [1]): 3.2e-05 ± 7.1e-06 s⁻¹ | self-cleavage kobs at 2500 uM GlcN6P (glucosamine-6-phosphate [4]): 4.47e-05 ± 1.2e-05 s⁻¹ | self-cleavage kobs at 10000 uM GlcN6P (glucosamine-6-phosphate [5]): 2.59e-05 ± 8.5e-06 s⁻¹

C16U A33U C71G
kcat (glucosamine-6-phosphate [1]): 2.09e-05 ± 7.7e-06 s⁻¹

C16G G40U
kcat (glucosamine-6-phosphate [1]): 0.00053 ± 2.1e-05 s⁻¹ | KM (glucosamine-6-phosphate [2]): 4960 ± 340 µM | self-cleavage kobs at 640 uM GlcN6P (glucosamine-6-phosphate [3]): 6.22e-05 ± 1.1e-05 s⁻¹ | self-cleavage kobs at 2500 uM GlcN6P (glucosamine-6-phosphate [4]): 0.000171 ± 2.7e-05 s⁻¹ | self-cleavage kobs at 10000 uM GlcN6P (glucosamine-6-phosphate [5]): 0.000357 ± 4.2e-05 s⁻¹

C16U G44U
kcat (glucosamine-6-phosphate [1]): 0.000229 ± 2.9e-05 s⁻¹ | KM (glucosamine-6-phosphate [2]): 1160 ± 450 µM | self-cleavage kobs at 640 uM GlcN6P (glucosamine-6-phosphate [3]): 7.8e-05 ± 1.7e-05 s⁻¹ | self-cleavage kobs at 2500 uM GlcN6P (glucosamine-6-phosphate [4]): 0.000216 ± 4.3e-05 s⁻¹ | self-cleavage kobs at 10000 uM GlcN6P (glucosamine-6-phosphate [5]): 0.000197 ± 2.3e-05 s⁻¹

A15U U31G
kcat (glucosamine-6-phosphate [1]): 0.00129 ± 0.00024 s⁻¹ | KM (glucosamine-6-phosphate [2]): 2960 ± 980 µM | self-cleavage kobs at 40 uM GlcN6P (glucosamine-6-phosphate [6]): 1.82e-05 ± 8.3e-06 s⁻¹ | self-cleavage kobs at 160 uM GlcN6P (glucosamine-6-phosphate [7]): 0.000104 ± 2.2e-05 s⁻¹ | self-cleavage kobs at 640 uM GlcN6P (glucosamine-6-phosphate [3]): 0.000193 ± 3.7e-05 s⁻¹ | self-cleavage kobs at 2500 uM GlcN6P (glucosamine-6-phosphate [4]): 0.000572 ± 9.4e-05 s⁻¹ | self-cleavage kobs at 10000 uM GlcN6P (glucosamine-6-phosphate [5]): 0.00102 ± 0.00012 s⁻¹

A15U U31C
kcat (glucosamine-6-phosphate [1]): 0.00128 ± 0.0001 s⁻¹ | KM (glucosamine-6-phosphate [2]): 2710 ± 340 µM | self-cleavage kobs at 40 uM GlcN6P (glucosamine-6-phosphate [6]): 1.67e-05 ± 5.8e-06 s⁻¹ | self-cleavage kobs at 160 uM GlcN6P (glucosamine-6-phosphate [7]): 7.32e-05 ± 7.2e-06 s⁻¹ | self-cleavage kobs at 640 uM GlcN6P (glucosamine-6-phosphate [3]): 0.000233 ± 1.9e-05 s⁻¹ | self-cleavage kobs at 2500 uM GlcN6P (glucosamine-6-phosphate [4]): 0.000703 ± 6.9e-05 s⁻¹ | self-cleavage kobs at 10000 uM GlcN6P (glucosamine-6-phosphate [5]): 0.000981 ± 7.1e-05 s⁻¹

C16U G41U
kcat (glucosamine-6-phosphate [1]): 0.00145 ± 0.00031 s⁻¹ | KM (glucosamine-6-phosphate [2]): 599 ± 170 µM | self-cleavage kobs at 40 uM GlcN6P (glucosamine-6-phosphate [6]): 9.78e-05 ± 8.3e-06 s⁻¹ | self-cleavage kobs at 160 uM GlcN6P (glucosamine-6-phosphate [7]): 0.000229 ± 4.6e-05 s⁻¹ | self-cleavage kobs at 640 uM GlcN6P (glucosamine-6-phosphate [3]): 0.000727 ± 0.00014 s⁻¹ | self-cleavage kobs at 2500 uM GlcN6P (glucosamine-6-phosphate [4]): 0.00155 ± 0.00029 s⁻¹ | self-cleavage kobs at 10000 uM GlcN6P (glucosamine-6-phosphate [5]): 0.00126 ± 0.00027 s⁻¹

C16A U30A
kcat (glucosamine-6-phosphate [1]): 0.00139 ± 0.00047 s⁻¹ | self-cleavage kobs at 40 uM GlcN6P (glucosamine-6-phosphate [6]): 3.95e-05 ± 8.3e-06 s⁻¹ | self-cleavage kobs at 160 uM GlcN6P (glucosamine-6-phosphate [7]): 0.000164 ± 3e-05 s⁻¹ | self-cleavage kobs at 640 uM GlcN6P (glucosamine-6-phosphate [3]): 0.000316 ± 5.7e-05 s⁻¹ | self-cleavage kobs at 2500 uM GlcN6P (glucosamine-6-phosphate [4]): 0.00154 ± 0.00022 s⁻¹ | self-cleavage kobs at 10000 uM GlcN6P (glucosamine-6-phosphate [5]): 0.00109 ± 0.00017 s⁻¹

A15G U65A
kcat (glucosamine-6-phosphate [1]): 0.00646 ± 0.0018 s⁻¹ | KM (glucosamine-6-phosphate [2]): 3290 ± 1300 µM | self-cleavage kobs at 40 uM GlcN6P (glucosamine-6-phosphate [6]): 9.64e-05 ± 1.3e-05 s⁻¹ | self-cleavage kobs at 160 uM GlcN6P (glucosamine-6-phosphate [7]): 0.000343 ± 0.00011 s⁻¹ | self-cleavage kobs at 640 uM GlcN6P (glucosamine-6-phosphate [3]): 0.000867 ± 0.00018 s⁻¹ | self-cleavage kobs at 2500 uM GlcN6P (glucosamine-6-phosphate [4]): 0.00193 ± 0.00048 s⁻¹ | self-cleavage kobs at 10000 uM GlcN6P (glucosamine-6-phosphate [5]): 0.00545 ± 0.00064 s⁻¹

C16A U55C
kcat (glucosamine-6-phosphate [1]): 0.00122 ± 0.00014 s⁻¹ | KM (glucosamine-6-phosphate [2]): 2120 ± 400 µM | self-cleavage kobs at 40 uM GlcN6P (glucosamine-6-phosphate [6]): 1.93e-05 ± 8.5e-06 s⁻¹ | self-cleavage kobs at 160 uM GlcN6P (glucosamine-6-phosphate [7]): 7.75e-05 ± 1.1e-05 s⁻¹ | self-cleavage kobs at 640 uM GlcN6P (glucosamine-6-phosphate [3]): 0.00033 ± 4.4e-05 s⁻¹ | self-cleavage kobs at 2500 uM GlcN6P (glucosamine-6-phosphate [4]): 0.000717 ± 8e-05 s⁻¹ | self-cleavage kobs at 10000 uM GlcN6P (glucosamine-6-phosphate [5]): 0.000949 ± 0.00011 s⁻¹

C16G C61U
kcat (glucosamine-6-phosphate [1]): < 1e-05 s⁻¹ | self-cleavage kobs at 40 uM GlcN6P (glucosamine-6-phosphate [6]): < 1e-05 s⁻¹ | self-cleavage kobs at 160 uM GlcN6P (glucosamine-6-phosphate [7]): < 1e-05 s⁻¹
